Patent US20210317204A1

Target: human ROR1 extracellular domain-Fc fusion (human) (UniProt Q01973)
Test: SPR, hROR1 ECD-Fc on chip

Row | Binder | Kd | koff | kon
1 | D3 ADV1 dimer (VNAR, part only; not given: Linker between the domains, not shown: small tags and cut ends) chain, part: ASVNQSPSSLSASVGDRVTITCVLTDTSYGLYSTSWFRKNPGTTDWERMSIGGRYSESVNKGAKSFTLTISSLQPEDSATYYCKAQSGMAISTGSGHGYNWYDGAGTKVEIKASVNQSPSSLSASVGDRVTITCVLTDTSYGLYSTSWFRKNPGTTDWERMSIGGRYSESVNKGAKSFTLTISSLQPEDSATYYCKAQSGMAISTGSGHGYNWYDGAGTKVEIKQASGAHHHHHHGAEFEQKLISEEDLG | 8.92 nM | 0.00567 s⁻¹ | 636000 M⁻¹ s⁻¹
2 | D3 ADV2 dimer (VNAR, part only; not given: Linker between the domains, not shown: small tags and cut ends) chain, part: TRVDQSPSSLSASVGDRVTITCVLTDTSYGLYSTSWFRKNPGTTDWERMSIGGRYSESVNKGAKSFTLTISSLQPEDSATYYCKAQSGMAISTGSGHGYNWYDGAGTKVEIKTRVDQSPSSLSASVGDRVTITCVLTDTSYGLYSTSWFRKNPGTTDWERMSIGGRYSESVNKGAKSFTLTISSLQPEDSATYYCKAQSGMAISTGSGHGYNWYDGAGTKVEIKQASGAHHHHHHGAEFEQKLISEEDLG | 26.2 nM | 0.016 s⁻¹ | 609000 M⁻¹ s⁻¹
